In article PMC12535202, “N3A motifs in RIβ mediate allosteric crosstalk between cAMP and ATP in PKA activation” (Protein Science : A Publication of the Protein Society, 2025):

Biological target: the molecule itself
Assay: non-reducing SDS-PAGE with Western blot; mouse tissue supernatants (70 μg), sample buffer without reducing agent, unboiled, 8% SDS-PAGE, blot probed with an RIβ-specific antibody

B1: RIβ from mouse brain tissue (natural protein, mouse (endogenous in mouse brain), UniProt P12849 1-381, looked up)
chain: MASPSCFHSEDEDSLKGCEMYVQKHGIQQVLKECIVHLCVAKPDRPLRFLREHFEKLEKEENRQILARQKSNSQCDSHDEEISPTPPNPVVKARRRRGGVSAEVYTEEDAVSYVRKVIPKDYKTMTALAKAISKNVLFSHLDDNERSDIFDAMFPVTHIGGETVIQQGNEGDNFYVIDQGEVDVYVNGEWVTNISEGGSFGELALIYGTPRAATVKAKTDLKLWGIDRDSYRRILMGSTLRKRKMYEEFLSKVSILESLEKWERLTVADALEPVQFEDGEKIVVQGEPGDDFYIITEGTASVLQRRSPNEEYVEVGRLGPSDYFGEIALLLNRPRAATVVARGPLKCVKLDRPRFERVLGPCSEILKRNIQRYNSFISLTV
modifications: disulfide bonded (dimer seen under non-reduced conditions)
notes: PKA regulatory subunit RIβ, endogenous in mouse brain, detected with an RIβ-specific antibody; source: endogenous, mouse brain homogenate (digitonin lysis buffer), supernatant
- stoichiometry N: 2
